Measurements as given in the supplement of paper PMC9732359.
± gives the uncertainty stated by the source.

Assay: protein stability index of a GFP-peptide fusion (yeast GPS) (PSI 1-4); higher = more stable; sorted into four equal gates, so the index is relative within each strain
In short: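 Yeast carrying a pooled library were grown to mid-log phase in leucine-free medium. Each library plasmid expresses Cherry and has a tiled 17-residue yeast protein peptide fused downstream of GFP. Cells were sorted into four equal gates by GFP/Cherry ratio, and plasmids from each gate were PCR-amplified, Illumina-sequenced and assigned to strains by barcode. Summing, across gates, the read frequency times the gate number gave each peptide's protein stability index.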

Sequence | protein stability index (doa10∆) | protein stability index (pdr5∆) | protein stability index (san1∆) | protein stability index (ubr1∆)
TAASVFKELCYENKDNL [PRE3] | 2.67 ± 0.051 | 2.45 ± 0.047 | 2.38 ± 0.058 | 2.17 ± 0.054
TAFKATVFFLIRVAETR [YJL039C/NUP192] | 1.53 ± 0.087 | 1.22 ± 0.063 | 1.12 ± 0.12 | 1.47 ± 0.048
TAFKSSPFGGSSHAKGI [RPS23A] | 3.02 ± 0.067 | 2.61 ± 0.053 | 3.02 ± 0.048 | 2.29 ± 0.04
TAGKTSVKSARTSTRGR [SNF2] | 3.44 ± 0.058 | 3.37 ± 0.052 | 3.12 ± 0.042 | 3.206 ± 0.031
TAGNWVASQTVKKVIEI [PRE2] | 3.18 ± 0.12 | 3.35 ± 0.084 | 2.77 ± 0.069 | 3.23 ± 0.081
TAIAHSIREQVHMYHKS [SNF5] | 1.89 ± 0.044 | 1.92 ± 0.047 | 2.23 ± 0.069 | 2.12 ± 0.044
TAIDKNGNITYSEEPRE [FAS2] | 2.87 ± 0.069 | 3.29 ± 0.066 | 3.12 ± 0.076 | 3.15 ± 0.073
TASSLAHDYNNDQDMFT [YML103C/NUP188] | 3.19 ± 0.067 | 3.04 ± 0.063 | 3.17 ± 0.046 | 3.12 ± 0.055
TAVAFWSWDIAVDNCAI [HRT1] | 1.33 ± 0.07 | 1.49 ± 0.067 | 1.52 ± 0.12 | 1.55 ± 0.043
TCAVGVKGKNCVVLGCE [PRE6] | – | – | – | 3.42 ± 0.24
TCILHGPVAAQFTKVID [FAS1] | 1.73 ± 0.064 | 2.25 ± 0.048 | 1.94 ± 0.081 | 1.98 ± 0.047
TCVAKKGIAKEHAKWGP [RPB3] | 3.31 ± 0.07 | 3.28 ± 0.08 | 3.21 ± 0.07 | 3.16 ± 0.047
TDAGVLALKLELLDFLT [YJL039C/NUP192] | 2.84 ± 0.061 | 2.98 ± 0.078 | 2.96 ± 0.052 | 3.02 ± 0.046
TDGDSILYYDVLFITPD [BRR2] | 2.47 ± 0.068 | 2.5 ± 0.064 | 2.54 ± 0.068 | 2.94 ± 0.051
TDGELDIEFINSLLTIV [RPC34] | 2.78 ± 0.095 | 2.68 ± 0.14 | 2.4 ± 0.092 | 2.81 ± 0.091
TDLHLPKKEYDDDAVRR [NSL1] | 1.99 ± 0.13 | 2.25 ± 0.12 | 1.42 ± 0.24 | 3.13 ± 0.11
TDLMSIVQELLDKNLIK [RPC34] | 3.39 ± 0.21 | 2.74 ± 0.17 | – | 3.15 ± 0.14
TDLRFQSSAIGALQESV [HHT1] | 1.32 ± 0.13 | 1.41 ± 0.13 | 1.32 ± 0.17 | 1.32 ± 0.23
TDRLSTTQRRYEKAQKD [SMC1] | 3.33 ± 0.14 | 3.23 ± 0.095 | 2.63 ± 0.14 | –
TDVLEISKQRTFAVILF [YMR129W/POM152] | 1.93 ± 0.056 | 2.52 ± 0.054 | 2.41 ± 0.058 | 2.21 ± 0.041
TDYLYRRLHDENLMVQR [YCS4] | 2.44 ± 0.089 | 2.08 ± 0.063 | 2.45 ± 0.067 | 2.38 ± 0.076
TEAGFFAIRDDRDHINP [RPT4] | 2.49 ± 0.08 | 2.99 ± 0.072 | 3.12 ± 0.058 | 3.27 ± 0.045
TEEELQAAVPDNAEDDS [BRN1] | 3.2 ± 0.094 | 3.14 ± 0.089 | 3.05 ± 0.083 | 3.02 ± 0.055
TEELQTQYATSQKTKTI [SMC2] | 3.5 ± 0.24 | 3.19 ± 0.14 | 3.11 ± 0.23 | 3.18 ± 0.093
TEHSKVTRFDEKQIEEL [SRB6] | 3.2 ± 0.14 | 3.26 ± 0.086 | 3.11 ± 0.081 | 3.26 ± 0.07
TEKLSPLASEESLTNSN [YGL100W/SEH1] | 3.36 ± 0.13 | 3.25 ± 0.14 | 3.12 ± 0.099 | 3.32 ± 0.075
TELMNRSPLVTPMDESS [SRP72] | 2.52 ± 0.071 | 2.58 ± 0.07 | 3.03 ± 0.076 | 2.59 ± 0.062

Sequence | protein stability index (doa10∆) | protein stability index (pdr5∆) | protein stability index (san1∆) | protein stability index (ubr1∆)
TENAIEEKVIERAAQKL [ISW2] | 2.61 ± 0.095 | 2.74 ± 0.17 | – | 2.79 ± 0.051
TENDIKALQSIGQLIGE [RPT4] | 3.21 ± 0.082 | 3.06 ± 0.095 | 2.74 ± 0.099 | 3.23 ± 0.045
TEQQIEVPEGVTVSIKS [RPL9A] | 2.46 ± 0.069 | 2.3 ± 0.051 | 1.99 ± 0.073 | 2.85 ± 0.043
TESNELIQKLQNSANNN [IRR1] | 2.93 ± 0.11 | 3.02 ± 0.082 | 3.24 ± 0.053 | 3.09 ± 0.17
TFDGIRMSSEEVNSLLL [GRR1] | 3.03 ± 0.099 | 3.04 ± 0.15 | 3.14 ± 0.15 | 2.92 ± 0.074
TFEKHDRVEDICERIFE [RRI2] | 2.68 ± 0.12 | 3.05 ± 0.16 | 3.15 ± 0.23 | –
TFGTKHAADSQNNKPSF [YLR335W/NUP2] | 3.16 ± 0.22 | – | 3.18 ± 0.17 | 3.05 ± 0.2
TFHDELNLKFKEKWPSL [YML103C/NUP188] | 3.23 ± 0.095 | 3.57 ± 0.2 | 2.81 ± 0.082 | 3.09 ± 0.098
TFPPEVLARISPELSLQ [RRP43] | 2.32 ± 0.073 | 2.87 ± 0.11 | 2.53 ± 0.081 | 2.67 ± 0.071
TFSWLNAELLDYLFHLL [YLR018C/POM34] | 1.64 ± 0.075 | 1.47 ± 0.039 | 1.46 ± 0.14 | 1.4 ± 0.044
TFTKKCLENARSQISEK [SIR4] | 3.2 ± 0.063 | 3.12 ± 0.057 | 3.15 ± 0.05 | 3.07 ± 0.041
TGESEESSSEDDYEDQD [IRR1] | 3.5 ± 0.17 | 3.34 ± 0.16 | – | 3.57 ± 0.26
TGETYQRFVGHKSDVMS [ASC1] | 2.73 ± 0.14 | 3.09 ± 0.069 | 2.6 ± 0.096 | 2.94 ± 0.093
TGKIVDVVGTLSRNGKP [FAS1] | 3.33 ± 0.15 | 3.6 ± 0.13 | 3.48 ± 0.094 | 3.44 ± 0.071
TGLCSFDYSVILNSIPA [YJL039C/NUP192] | 1.6 ± 0.052 | 1.51 ± 0.059 | 1.49 ± 0.095 | 1.28 ± 0.045
TGLNGSGKSNILDAICF [SMC2] | 3.4 ± 0.12 | 2.98 ± 0.093 | 3.28 ± 0.063 | 3.31 ± 0.054
TGNFIIPSGNVWNYTFM [PRP8] | 3.05 ± 0.095 | 2.95 ± 0.12 | 2.88 ± 0.077 | 3.18 ± 0.12
TGNNLYDRNSNNNHKDK [SWI1] | 3.03 ± 0.049 | 3.12 ± 0.051 | 2.89 ± 0.06 | 3.12 ± 0.039
TGSIRHRLKLCKSLISE [CSE2] | 3.49 ± 0.29 | – | – | –
TGVVYNVTKSSVGVIIN [RPL21A] | 2.07 ± 0.09 | 2.6 ± 0.057 | 1.95 ± 0.095 | 2.18 ± 0.067
TGWISKCTAEGIKVSLL [RPC25] | 2.9 ± 0.14 | 3.12 ± 0.15 | 2.66 ± 0.08 | 2.95 ± 0.15
THAQRTGLSQIPNRRFT [PRP8] | 2.8 ± 0.048 | 2.62 ± 0.047 | 2.83 ± 0.048 | 2.88 ± 0.043
THLEIEPFTILGAVAGL [RET1] | 1.42 ± 0.041 | 1.91 ± 0.054 | 2.08 ± 0.12 | 2.04 ± 0.048
THPHAADGSSYMEQGNN [SKI6] | 3.05 ± 0.073 | 3.2 ± 0.063 | 3.02 ± 0.052 | 3.07 ± 0.047
TIIFIDELDAIGTKRFD [RPT5] | 2.75 ± 0.069 | 2.33 ± 0.045 | 2.5 ± 0.075 | 2.42 ± 0.059
TILCTPTGGKAKLSEGT [RPS27A] | 2.83 ± 0.097 | 2.85 ± 0.1 | 3.12 ± 0.072 | 2.74 ± 0.056
TINEMMKHLGRSEGNPV [FAS2] | 2.5 ± 0.09 | 2.76 ± 0.064 | 2.53 ± 0.066 | 2.94 ± 0.072
